Patent publication US20050124036

How the values were obtained:
[1] = target: T1, streptokinase (S8026) (Sigma, Deisenhofen), P00779
T1 chain: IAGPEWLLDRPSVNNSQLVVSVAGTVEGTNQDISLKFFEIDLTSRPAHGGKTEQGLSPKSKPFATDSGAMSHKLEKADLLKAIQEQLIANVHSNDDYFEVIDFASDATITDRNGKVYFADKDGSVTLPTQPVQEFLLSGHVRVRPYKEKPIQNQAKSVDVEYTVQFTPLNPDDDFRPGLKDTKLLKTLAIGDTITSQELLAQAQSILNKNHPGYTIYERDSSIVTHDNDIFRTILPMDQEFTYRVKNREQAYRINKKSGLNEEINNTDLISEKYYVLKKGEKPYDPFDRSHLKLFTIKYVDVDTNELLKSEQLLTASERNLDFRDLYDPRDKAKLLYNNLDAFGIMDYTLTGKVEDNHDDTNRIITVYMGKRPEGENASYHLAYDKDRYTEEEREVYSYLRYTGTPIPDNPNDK

[2] = target: T2, plasminogen according to the present invention (20 mg/ml, Example 8)
T2 chain: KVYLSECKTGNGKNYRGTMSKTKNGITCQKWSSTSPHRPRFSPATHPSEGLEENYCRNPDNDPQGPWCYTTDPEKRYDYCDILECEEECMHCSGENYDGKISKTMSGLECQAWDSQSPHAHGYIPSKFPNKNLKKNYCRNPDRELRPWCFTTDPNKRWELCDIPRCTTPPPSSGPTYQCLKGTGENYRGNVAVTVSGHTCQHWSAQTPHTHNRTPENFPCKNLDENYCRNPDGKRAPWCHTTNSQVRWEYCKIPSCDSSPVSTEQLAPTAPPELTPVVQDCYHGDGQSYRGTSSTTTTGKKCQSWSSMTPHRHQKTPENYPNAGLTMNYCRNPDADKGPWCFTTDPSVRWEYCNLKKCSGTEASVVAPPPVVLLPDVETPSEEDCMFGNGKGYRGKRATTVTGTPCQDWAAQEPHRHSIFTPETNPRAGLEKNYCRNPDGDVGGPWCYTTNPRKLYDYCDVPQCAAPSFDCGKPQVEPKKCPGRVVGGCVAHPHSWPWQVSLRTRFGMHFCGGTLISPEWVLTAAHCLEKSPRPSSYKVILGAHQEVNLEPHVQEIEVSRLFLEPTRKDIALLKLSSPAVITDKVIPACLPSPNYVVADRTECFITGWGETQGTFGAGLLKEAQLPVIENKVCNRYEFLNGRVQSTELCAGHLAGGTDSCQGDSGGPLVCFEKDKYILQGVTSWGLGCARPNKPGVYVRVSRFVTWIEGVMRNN

B1: recombinant human Lys-plasminogen secreted by Pichia pastoris carrying pSM54.2, pAC37.1 or pJW9.1 (alpha-factor prepropeptide joined by a Kex2 and two Ste13 … (protein)
chain: KVYLSECKTGNGKNYRGTMSKTKNGITCQKWSSTSPHRPRFSPATHPSEGLEENYCRNPDNDPQGPWCYTTDPEKRYDYCDILECEEECMHCSGENYDGKISKTMSGLECQAWDSQSPHAHGYIPSKFPNKNLKKNYCRNPDRELRPWCFTTDPNKRWELCDIPRCTTPPPSSGPTYQCLKGTGENYRGNVAVTVSGHTCQHWSAQTPHTHNRTPENFPCKNLDENYCRNPDGKRAPWCHTTNSQVRWEYCKIPSCDSSPVSTEQLAPTAPPELTPVVQDCYHGDGQSYRGTSSTTTTGKKCQSWSSMTPHRHQKTPENYPNAGLTMNYCRNPDADKGPWCFTTDPSVRWEYCNLKKCSGTEASVVAPPPVVLLPDVETPSEEDCMFGNGKGYRGKRATTVTGTPCQDWAAQEPHRHSIFTPETNPRAGLEKNYCRNPDGDVGGPWCYTTNPRKLYDYCDVPQCAAPSFDCGKPQVEPKKCPGRVVGGCVAHPHSWPWQVSLRTRFGMHFCGGTLISPEWVLTAAHCLEKSPRPSSYKVILGAHQEVNLEPHVQEIEVSRLFLEPTRKDIALLKLSSPAVITDKVIPACLPSPNYVVADRTECFITGWGETQGTFGAGLLKEAQLPVIENKVCNRYEFLNGRVQSTELCAGHLAGGTDSCQGDSGGPLVCFEKDKYILQGVTSWGLGCARPNKPGVYVRVSRFVTWIEGVMRNN
plasminogen activity after streptokinase activation, fermentation for 250 h, KM71H/pJW9.1-3 [1]: a plasminogen activity of 1375 U/l
plasminogen activity of culture supernatant after activation with streptokinase, 72 h of induction, KM71H/pSM54.2-1/1 [1]: 2 U/l
plasminogen activity of culture supernatant after activation with streptokinase, 72 h of induction, KM71H/pSM54.2-1/2 [1]: 8 U/l
plasminogen activity of culture supernatant after activation with streptokinase, 72 h of induction, KM71H/pSM54.2-1/3 [1]: 6 U/l
plasminogen activity of culture supernatant after activation with streptokinase, 118 h of induction, KM71H/pSM54.2-1/1 [1]: 8 U/l
plasminogen activity of culture supernatant after activation with streptokinase, 118 h of induction, KM71H/pSM54.2-1/2 [1]: 17 U/l
plasminogen activity of culture supernatant after activation with streptokinase, 118 h of induction, KM71H/pSM54.2-1/3 [1]: 13 U/l
plasminogen activity of culture supernatant after activation with streptokinase, 120 h of induction, KM71/pAC37.1-3/1 [1]: an activity of 120 U/l
plasminogen activity of culture supernatant after activation with streptokinase, 216 h of induction, KM71/pAC37.1-3/1 [1]: an activity of 190 U/l
plasminogen activity of culture supernatant after activation with streptokinase, BSM minimal medium, 120 h of induction, KM71/pAC37.1-3/1 [1]: a plasminogen activity of 193 U/l
plasminogen activity of culture supernatant after activation with streptokinase, BSM minimal medium, 168 h of induction, KM71/pAC37.1-3/1 [1]: 289 U/l

B2: recombinant human Lys-plasminogen secreted by Pichia pastoris KM71H/pMHS476.1 (alpha-factor prepropeptide joined by a Kex2 cleavage site) (protein)
chain: KVYLSECKTGNGKNYRGTMSKTKNGITCQKWSSTSPHRPRFSPATHPSEGLEENYCRNPDNDPQGPWCYTTDPEKRYDYCDILECEEECMHCSGENYDGKISKTMSGLECQAWDSQSPHAHGYIPSKFPNKNLKKNYCRNPDRELRPWCFTTDPNKRWELCDIPRCTTPPPSSGPTYQCLKGTGENYRGNVAVTVSGHTCQHWSAQTPHTHNRTPENFPCKNLDENYCRNPDGKRAPWCHTTNSQVRWEYCKIPSCDSSPVSTEQLAPTAPPELTPVVQDCYHGDGQSYRGTSSTTTTGKKCQSWSSMTPHRHQKTPENYPNAGLTMNYCRNPDADKGPWCFTTDPSVRWEYCNLKKCSGTEASVVAPPPVVLLPDVETPSEEDCMFGNGKGYRGKRATTVTGTPCQDWAAQEPHRHSIFTPETNPRAGLEKNYCRNPDGDVGGPWCYTTNPRKLYDYCDVPQCAAPSFDCGKPQVEPKKCPGRVVGGCVAHPHSWPWQVSLRTRFGMHFCGGTLISPEWVLTAAHCLEKSPRPSSYKVILGAHQEVNLEPHVQEIEVSRLFLEPTRKDIALLKLSSPAVITDKVIPACLPSPNYVVADRTECFITGWGETQGTFGAGLLKEAQLPVIENKVCNRYEFLNGRVQSTELCAGHLAGGTDSCQGDSGGPLVCFEKDKYILQGVTSWGLGCARPNKPGVYVRVSRFVTWIEGVMRNN
plasminogen activity of culture supernatant after activation with streptokinase (N-tosyl-Gly-Pro-Lys-pNA conversion), 72 h of induction, KM71H/pMHS476.1-1/1 [1]: 2 U/l
plasminogen activity of culture supernatant after activation with streptokinase (N-tosyl-Gly-Pro-Lys-pNA conversion), 72 h of induction, KM71H/pMHS476.1-1/2 [1]: 2 U/l
plasminogen activity of culture supernatant after activation with streptokinase (N-tosyl-Gly-Pro-Lys-pNA conversion), 72 h of induction, KM71H/pMHS476.1-1/3 [1]: 1 U/l
plasminogen activity of culture supernatant after activation with streptokinase (N-tosyl-Gly-Pro-Lys-pNA conversion), 118 h of induction, KM71H/pMHS476.1-1/1 [1]: 7 U/l
plasminogen activity of culture supernatant after activation with streptokinase (N-tosyl-Gly-Pro-Lys-pNA conversion), 118 h of induction, KM71H/pMHS476.1-1/2 [1]: 9 U/l
plasminogen activity of culture supernatant after activation with streptokinase (N-tosyl-Gly-Pro-Lys-pNA conversion), 118 h of induction, KM71H/pMHS476.1-1/3 [1]: 8 U/l

B3: Clostripain (protein)
chain: NKNQKVTIMYYCDADNNLEGSLLNDIEEMKTGYKDSPNLNLIALVDRSPRYSSDEKVLGEDFSDTRLYKIEHNKANRLDGKNEFPEISTTSKYEANMGDPEVLKKFIDYCKSNYEADKYVLIMANHGGGAREKSNPRLNRAICWDDSNLDKNGEADCLYMGEISDHLTEKQSVDLLAFDACLMGTAEVAYQYRPGNGGFSADTLVASSPVVWGPGFKYDKIFDRIKAGGGTNNEDDLTLGGKEQNFDPATITNEQLGALFVEEQRDSTHANGRYDQHLSFYDLKKAESVKRAIDNLAVNLSNENKKSEIEKLRGSGIHTDLMHYFDEYSEGEWVEYPYFDVYDLCEKINKSENFSSKTKDLASNAMNKLNEMIVYSFGDPSNNFKEGKNGLSIFLPNGDKKYSTYYTSTKIPHWTMQSWYNSIDTVKYGLNPYGKLSWCKDGQDPEINKVGNWFELLDSWFDKTNDVTGGVNHYQW
plasmin activity after activation [2]: 1.7 U/mg
